Reference: patent publication US20180155451A1 (published 2018)

Assays:
[1] = target: T1, FcgRIIb extracellular domain with C-terminal His tag (human, UniProt P31994 43-217); assay: SPR (Biacore T100), antibody captured on antigen peptide chip, FcγR extracellular domain as analyte, kinetic analysis
T1 construct: extracellular domain; also called FcγRIIb; not shown: His tag attached to the C terminus
T1 sequence (looked up): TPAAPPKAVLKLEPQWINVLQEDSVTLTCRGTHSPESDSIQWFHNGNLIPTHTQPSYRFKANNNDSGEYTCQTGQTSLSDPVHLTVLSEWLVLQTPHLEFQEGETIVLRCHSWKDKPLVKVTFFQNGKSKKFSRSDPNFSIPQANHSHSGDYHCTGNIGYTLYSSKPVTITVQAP
Protocol: (§1) The prepared antibodies were assayed as to the KDs for FcγRIIIa and FcγRIIb according to the method described in Reference Example 2.
(§2) Analysis of interaction between objective antibody and the FcγR was carried out using Biacore T100 (GE Healthcare). HBS-EP+ (GE Healthcare) was used as the running buffer, and the measurement temperature was set to 25° C. Chips produced by immobilizing the antigen peptide by the amine coupling method to a Series S Sencor Chip CM5 (GE Healthcare), or alternatively, chips produced by allowing preliminarily biotinylated antigen peptides to interact with and immobilize onto a Series S Sensor Chip SA (certified) (GE Healthcare) were used. Antibodies of interest were captured onto an antigen peptide-immobilized chip, and allowed to interact to each FcγR diluted with running buffer. To regenerate and repeatedly use the chip, the antibodies captured on the chip were washed off by reacting 10 mM glycine-HCl, pH 1.5.
(§3) The FcγR-binding activity of each antibody was assessed primarily using as an indicator the FcγR-binding activity and dissociation constant for FcγR.

[2] = target: T2, FcgRIIIa F extracellular domain with C-terminal His tag (human, UniProt P08637 17-208); assay: as above
T2 construct: extracellular domain; also called FcγRIIIa F; FcγRIIIa (F158); not shown: His tag attached to the C terminus
T2 sequence (P08637 17-208): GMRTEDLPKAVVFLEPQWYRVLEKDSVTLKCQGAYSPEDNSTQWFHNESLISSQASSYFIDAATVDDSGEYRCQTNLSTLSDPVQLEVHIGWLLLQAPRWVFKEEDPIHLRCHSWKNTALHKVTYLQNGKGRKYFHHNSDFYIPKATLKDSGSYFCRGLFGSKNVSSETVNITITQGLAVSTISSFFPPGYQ
Protocol: as §1, §2, §3

[3] = target: T2, FcgRIIIa F extracellular domain with …; assay: ratio of SPR (Biacore) KDs, FcγRIIb as reference
Protocol: as §1, §2, §3

[4] = target: T3, FcgRIIa R extracellular domain with C-terminal His tag (human, UniProt P12318 34-217); assay: SPR (Biacore) KD ratio against the template H240-Kn061/H240-Hl071/L73-k0
T3 construct: extracellular domain; also called FcγRIIa R; FcγRIIa type R; not shown: His tag attached to the C terminus
T3 sequence (looked up): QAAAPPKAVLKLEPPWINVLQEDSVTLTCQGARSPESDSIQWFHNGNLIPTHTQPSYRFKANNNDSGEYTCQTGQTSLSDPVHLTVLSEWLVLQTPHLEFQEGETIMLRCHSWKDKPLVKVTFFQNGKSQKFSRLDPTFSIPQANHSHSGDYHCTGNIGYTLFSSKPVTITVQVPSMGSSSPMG
Protocol: (§4) The antibodies were assessed for the binding to each FcgR. […] The resultant value was defined as relative KD, and used as an assessment indicator.
(§5) Analysis of interaction between obj ective antibody and the FcγR was carried out using Biacore T100 (GE Healthcare), Biacore T200, Biacore A100, and Biacore 4000. HBS-EP+ (GE Healthcare) was used as the running buffer, and the measurement temperature was set to 25° C. Chips produced by immobilizing the antigen peptide by the amine coupling method to a Series S sensor Chip CM5 (GE Healthcare), chips produced by allowing preliminarily biotinylated antigen peptides to interact with and immobilize onto a Series S Sensor Chip SA (certified) (GE Healthcare), chips produced by immobilizing Protein L (ACTIGEN, BioVision) to Series S Sencor Chip CM5 (GE Healthcare), or chips produced by immobilizing Protein A/G (Thermo Scientific) to Series S Sencor Chip CM5 (GE Healthcare) were used. Antibodies of interest were captured onto these chips, and allowed to interact to each FcγR diluted with running buffer.

[5] = target: T1, FcgRIIb extracellular domain with …; assay: as above
Protocol: as §4, §5

[6] = target: T2, FcgRIIIa F extracellular domain with …; assay: as above
Protocol: as §4, §5

[7] = target: T4, FcgRIIIa V extracellular domain with C-terminal His tag (human, UniProt P08637 17-208); assay: as above
T4 construct: extracellular domain; also called FcγRIIIa V; FcγRIIIa (V158); not shown: His tag attached to the C terminus
T4 sequence (P08637 17-208 F176V): as the sequence (P08637 17-208) above, with F160V counted along it
Protocol: as §4, §5

[8] = target: T5, FcgRIIa H extracellular domain with C-terminal His tag (human, UniProt P12318 34-217); assay: as above
T5 construct: extracellular domain; also called FcγRIIa H; FcγRIIa type H; not shown: His tag attached to the C terminus
T5 sequence (looked up): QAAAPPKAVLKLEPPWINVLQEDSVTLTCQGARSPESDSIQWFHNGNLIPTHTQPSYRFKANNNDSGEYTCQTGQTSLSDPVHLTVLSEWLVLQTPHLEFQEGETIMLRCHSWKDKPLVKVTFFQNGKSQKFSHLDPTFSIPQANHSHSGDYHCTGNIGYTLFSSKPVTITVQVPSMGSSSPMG
Protocol: as §4, §5

B1: GpH7-TA7/GpH7-B78/GpL16-k0 (antibody, human IgG1, kappa)
heavy 1: QVQLVQSGAEVKKPGASVTVSCKASGYTFTDYEMHWIRQPPGEGLEWIGAIDPKTGDTAYSESFQDRVTLTADKSTSTAYMELSSLTSEDTAVYYCTRFYSYTYWGQGTLVTVSSASTKGPSVFPLAPSSKSTSGGTAALGCLVKDYFPEPVTVSWNSGALTSGVHTFPAVLQSSGLYSLSSVVTVPSSSLGTQTYICNVNHKPSNTKVDKKVEPKSCDKTHTCPPCPAPEYLWGPSVFLFPPKPKDTLMISRTPEVTCVVVDVSHEDPEVKFNWYVDGVEVHNAKTKPREEQYNATYRVVSVLTVLHQDWLNGKEYKCKVSNKALPAPIEKTISKAKGQPREPQVYTLPPSRKELTKNQVSLTCLVKGFYPSDIAVEWESNGQPENNYKTTPPVLDSDGSFFLYSKLTVDKSRWQQGNVFSCSVMHEALHNRYTQKSLSLSP
heavy 2: QVQLVQSGAEVKKPGASVTVSCKASGYTFTDYEMHWIRQPPGEGLEWIGAIDPKTGDTAYSESFQDRVTLTADKSTSTAYMELSSLTSEDTAVYYCTRFYSYTYWGQGTLVTVSSASTKGPSVFPLAPSSKSTSGGTAALGCLVKDYFPEPVTVSWNSGALTSGVHTFPAVLQSSGLYSLSSVVTVPSSSLGTQTYICNVNHKPSNTKVDKKVEPKSCDKTHTCPPCPAPELLGGPDVFLFPPKPKDTLMISRTPEVTCVVVDVSHEDPEVKFNWYVDGVEVHNAKTKPREEQYNSTYRVVSVLTVLHQDWLNGKEYKCKVSNKALPLPEEKTISKAKGQPREPQVYTLPPSRDELTKNQVSLTCLVKGFYPSDIAVEWESNGQPENNYKTTPPVLDSDGSFFLYSKLTVDKSRWQQGNVFSCSVMHEALHNHYTQESLSLSP
light: DIVMTQSPLSLPVTPGEPASISCQASESLVHSNRNTYLHWYLQKPGQSPQLLIYKVSNRFSGVPDRFSGSGSGTDFTLKISRVEAEDVGVYYCSQNTHVPPTFGQGTKVEIERTVAAPSVFIFPPSDEQLKSGTASVVCLLNNFYPREAKVQWKVDNALQSGNSQESVTEQDSKDSTYSLSSTLTLSKADYEKHKVYACEVTHQGLSSPVTKSFNRGEC
notes: L234Y/G236W/S298A in one H chain, S239D/A330L/I332E in the other; also called TA7/B78
Kd [1]: 1.1 µM | Kd [2]: 4.7 nM | FcγRIIIa F/FcγRIIb ratio (KD for FcγRIIb / KD for FcγRIIIa F) [3]: 244

B2: GpH7-TA7/GpH7-TA45/GpL16-k0 (antibody, human IgG1, kappa)
heavy 1: QVQLVQSGAEVKKPGASVTVSCKASGYTFTDYEMHWIRQPPGEGLEWIGAIDPKTGDTAYSESFQDRVTLTADKSTSTAYMELSSLTSEDTAVYYCTRFYSYTYWGQGTLVTVSSASTKGPSVFPLAPSSKSTSGGTAALGCLVKDYFPEPVTVSWNSGALTSGVHTFPAVLQSSGLYSLSSVVTVPSSSLGTQTYICNVNHKPSNTKVDKKVEPKSCDKTHTCPPCPAPEYLWGPSVFLFPPKPKDTLMISRTPEVTCVVVDVSHEDPEVKFNWYVDGVEVHNAKTKPREEQYNATYRVVSVLTVLHQDWLNGKEYKCKVSNKALPAPIEKTISKAKGQPREPQVYTLPPSRKELTKNQVSLTCLVKGFYPSDIAVEWESNGQPENNYKTTPPVLDSDGSFFLYSKLTVDKSRWQQGNVFSCSVMHEALHNRYTQKSLSLSP
heavy 2: QVQLVQSGAEVKKPGASVTVSCKASGYTFTDYEMHWIRQPPGEGLEWIGAIDPKTGDTAYSESFQDRVTLTADKSTSTAYMELSSLTSEDTAVYYCTRFYSYTYWGQGTLVTVSSASTKGPSVFPLAPSSKSTSGGTAALGCLVKDYFPEPVTVSWNSGALTSGVHTFPAVLQSSGLYSLSSVVTVPSSSLGTQTYICNVNHKPSNTKVDKKVEPKSCDKTHTCPPCPAPEYLWGPSVFLFPPKPKDTLMISRTPEVTCVVVDVSHEDPEVKFNWYVDGVEVHNAKTKPREEQYNATYRVVSVLTVLHQDWLNGKEYKCKVSNKALPAPIEKTISKAKGQPREPQVYTLPPSRDELTKNQVSLTCLVKGFYPSDIAVEWESNGQPENNYKTTPPVLDSDGSFFLYSKLTVDKSRWQQGNVFSCSVMHEALHNHYTQESLSLSP
light: DIVMTQSPLSLPVTPGEPASISCQASESLVHSNRNTYLHWYLQKPGQSPQLLIYKVSNRFSGVPDRFSGSGSGTDFTLKISRVEAEDVGVYYCSQNTHVPPTFGQGTKVEIERTVAAPSVFIFPPSDEQLKSGTASVVCLLNNFYPREAKVQWKVDNALQSGNSQESVTEQDSKDSTYSLSSTLTLSKADYEKHKVYACEVTHQGLSSPVTKSFNRGEC
notes: L234Y/G236W/S298A in both H chains (called homodimerized); also called TA7/TA45
Kd [1]: 18 µM | Kd [2]: 3300 nM | FcγRIIIa F/FcγRIIb ratio (KD for FcγRIIb / KD for FcγRIIIa F) [3]: 5.3

B3: H240-Kn061/H240-Hl071/L73-k0 variant with F241L introduced into H240-Hl071 (antibody, human IgG1, kappa)
heavy 1: QDQLVQSGAEVKKPGASVKVSCKASGFNIKDTYIQWVRQAPGQGLEWMGRIDPLRKQTKYREKFEGRVTITADTSTNTAYMELSSLRSEDTAVYYCVRSGREFDYWGQGTLVTVSSASTKGPSVFPLAPSSKSTSGGTAALGCLVKDYFPEPVTVSWNSGALTSGVHTFPAVLQSSGLYSLSSVVTVPSSSLGTQTYICNVNHKPSNTKVDKKVEPKSCDKTHTCPPCPAPEYYWGPSVFLFPPKPKDTLMISRTPEVTCVVVDVSDEDPEVKFNWYVDGVEVHNAKTKPREEQYNATYRVVSVLTVLHQDWLNGKEYKCKVSNKALPAPIEKTISKAKGQPREPQVCTLPPSRDELTKNQVSLWCLVKGFYPSDIAVEWESNGQPENNYKTTPPVLDSDGSFFLYSKLTVDKSRWQQGNVFSCSVMHEALHNHYTQKSLSLSP
heavy 2: QDQLVQSGAEVKKPGASVKVSCKASGFNIKDTYIQWVRQAPGQGLEWMGRIDPLRKQTKYREKFEGRVTITADTSTNTAYMELSSLRSEDTAVYYCVRSGREFDYWGQGTLVTVSSASTKGPSVFPLAPSSKSTSGGTAALGCLVKDYFPEPVTVSWNSGALTSGVHTFPAVLQSSGLYSLSSVVTVPSSSLGTQTYICNVNHKPSNTKVDKKVEPKSCDKTHTCPPCPAPELLGGPSVLLFPPKPKDTLMISRTPEVTCVVVDVSHEDPEVKFNWYVDGVEVHNAKTKPREEQYNSTYRVVSVLTVLHQDWLNGKEYKCKVSNDALPMPIEETISKAKGQPREPQVYTLPPSRCELTKNQVSLSCAVKGFYPSDIAVEWESNGQPENNYKTTPPVLDSDGSFFLVSKLTVDKSRWQQGNVFSCSVMHEALHNHYTQKSLSLSP
light: DIQMTQSPSSLSASVGDRVTITCRASQDIHKYIAWYQQKPGQAPRLLIQYTSTLQPGVPSRFSGSGSGTDYTFTISSLQPEDIATYYCLQYEQLRTFGGGTKVEIKRTVAAPSVFIFPPSDEQLKSGTASVVCLLNNFYPREAKVQWKVDNALQSGNSQESVTEQDSKDSTYSLSSTLTLSKADYEKHKVYACEVTHQGLSSPVTKSFNRGEC
notes: Point variant made with H240-Kn061/H240-Hl071/L73-k0 as template; position by EU numbering; also called H240-Hl071 F241L
relative KD (KD of H240-Kn061/H240-Hl071/L73-k0 / KD of variant) [4]: 1.2 | relative KD (KD of H240-Kn061/H240-Hl071/L73-k0 / KD of variant) [5]: 0.8 | relative KD (KD of H240-Kn061/H240-Hl071/L73-k0 / KD of variant) [6]: 1.3 | relative KD (KD of H240-Kn061/H240-Hl071/L73-k0 / KD of variant) [7]: 1.3 | relative KD (KD of H240-Kn061/H240-Hl071/L73-k0 / KD of variant) [8]: 1.2
